6 molecules from article PMC3176292, “Mutations in Protein-Binding Hot-Spots on the Hub Protein Smad3 Differentially Affect Its Protein Interactions and Smad3-Regulated Gene Expression” (PLoS ONE, 2011) can be followed below.

Holding throughout (test): co-IP; LUMIER: Renilla luciferase-Smad3 and Flag-tagged partner co-expressed with constitutively active Alk5 in HEK-293; Flag protein captured from cleared lysate (TNE: 10 mM Tris-HCl pH 7.8, 150 mM NaCl, 1 mM EDTA, 1% Igepal CA-630) on anti-Flag 96-well plates, 2 h at 4 °C; co-precipitated Renilla luciferase activity, TrxGA background subtracted, percent of wild-type Smad3
Common to all, as to details: partners not purified

Experiment [1] concerns the target T1, Flag-SkiW274E, full length (UniProt P12755 1-728, W274E).
T1 construct: plasmid pCMV5b-Flag-SkiW274E (from K. Luo); also called SkiW274E FL; SKI274E; source: HEK-293, transfected, in lysate
T1 sequence (looked up): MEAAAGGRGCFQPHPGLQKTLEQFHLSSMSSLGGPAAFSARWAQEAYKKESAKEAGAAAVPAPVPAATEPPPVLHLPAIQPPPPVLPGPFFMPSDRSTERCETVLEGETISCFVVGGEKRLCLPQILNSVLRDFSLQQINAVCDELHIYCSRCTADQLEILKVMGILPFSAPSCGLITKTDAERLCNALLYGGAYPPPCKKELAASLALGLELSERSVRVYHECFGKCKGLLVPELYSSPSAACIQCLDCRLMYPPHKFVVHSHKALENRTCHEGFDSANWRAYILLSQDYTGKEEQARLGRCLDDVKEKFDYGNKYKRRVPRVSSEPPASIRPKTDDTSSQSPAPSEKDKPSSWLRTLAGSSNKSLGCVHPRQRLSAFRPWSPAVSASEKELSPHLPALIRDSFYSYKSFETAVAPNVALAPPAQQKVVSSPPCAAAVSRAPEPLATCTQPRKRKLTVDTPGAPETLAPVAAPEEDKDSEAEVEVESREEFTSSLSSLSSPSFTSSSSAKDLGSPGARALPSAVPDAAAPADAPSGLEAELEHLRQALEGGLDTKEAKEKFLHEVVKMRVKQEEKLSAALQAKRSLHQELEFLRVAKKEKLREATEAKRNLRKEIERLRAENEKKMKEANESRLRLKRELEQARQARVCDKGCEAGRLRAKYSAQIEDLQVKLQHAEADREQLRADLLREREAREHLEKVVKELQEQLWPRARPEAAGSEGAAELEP

The next experiment concerns the target T2, Flag-Smad3, full length (UniProt P84022 1-425).
T2 construct: Smad3; plasmid pCMV5-Flag-Smad3 (from J. Massagué); bait for Smad3-Smad3 association; also called Smad3 FL; source: HEK-293, transfected together with constitutively active Alk5, in lysate

Experiment [2] deals with T3, SIP1 Smad-binding domain (amino acids 315–487) on the 3xFlag-thioredoxin scaffold (UniProt Q9R0G7 315-487).
T3 construct: SIP1, amino acids 315–487; amplified from pACT2-SIP1-315-487 (from D. Huylebroeck), which I recall as a mouse clone; cloned into the RsrII site of pCI-3xFLAG-Trx; also called Sip1 315–487; TrxSIP1; source: HEK-293, transfected, in lysate
T3 sequence (looked up): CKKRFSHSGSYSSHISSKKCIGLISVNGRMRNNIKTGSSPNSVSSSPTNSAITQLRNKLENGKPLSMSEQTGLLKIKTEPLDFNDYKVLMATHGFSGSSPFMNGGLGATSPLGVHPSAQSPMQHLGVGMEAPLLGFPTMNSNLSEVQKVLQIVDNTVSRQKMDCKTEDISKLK

B1: Renilla luciferase-Smad3 D408H (natural protein, UniProt P84022 1-425, looked up)
chain: MSSILPFTPPIVKRLLGWKKGEQNGQEEKWCEKAVKSLVKKLKKTGQLDELEKAITTQNVNTKCITIPRSLDGRLQVSHRKGLPHVIYCRLWRWPDLHSHHELRAMELCEFAFNMKKDEVCVNPYHYQRVETPVLPPVLVPRHTEIPAEFPPLDDYSHSIPENTNFPAGIEPQSNIPETPPPGYLSEDGETSDHQMNHSMDAGSPNLSPNPMSPAHNNLDLQPVTYCEPAFWCSISYYELNQRVGETFHASQPSMTVDGFTDPSNSERFCLGLLSNVNRNAAVELTRRHIGRGVRLYYIGGEVFAECLSDSAIFVQSPNCNQRYGWHPATVCKIPPGCNLKIFNNQEFAALLAQSVNQGFEAVYQLTRMCTIRMSFVKGWGAEYRRQTVTSTPCWIELHLNGPLQWLHKVLTQMGSPSIRCSSVS
notes: Smad3; source: HEK-293, transfected together with constitutively active Alk5, in lysate
With B1, the “percent binding relative to wild-type Smad3” value in experiment [1] worked out at 31%; with Flag-Smad3, full length it was 30%; in experiment [2], 41%.

B2: Renilla luciferase-Smad3 R268A (natural protein, UniProt P84022 1-425, looked up)
chain: MSSILPFTPPIVKRLLGWKKGEQNGQEEKWCEKAVKSLVKKLKKTGQLDELEKAITTQNVNTKCITIPRSLDGRLQVSHRKGLPHVIYCRLWRWPDLHSHHELRAMELCEFAFNMKKDEVCVNPYHYQRVETPVLPPVLVPRHTEIPAEFPPLDDYSHSIPENTNFPAGIEPQSNIPETPPPGYLSEDGETSDHQMNHSMDAGSPNLSPNPMSPAHNNLDLQPVTYCEPAFWCSISYYELNQRVGETFHASQPSMTVDGFTDPSNSEAFCLGLLSNVNRNAAVELTRRHIGRGVRLYYIGGEVFAECLSDSAIFVQSPNCNQRYGWHPATVCKIPPGCNLKIFNNQEFAALLAQSVNQGFEAVYQLTRMCTIRMSFVKGWGAEYRRQTVTSTPCWIELHLNGPLQWLDKVLTQMGSPSIRCSSVS
notes: as for B1
For the molecule B2, the “percent binding relative to wild-type Smad3” value in experiment [1] was found to be 62%; with Flag-Smad3, full length, 27%; in experiment [2], 13%.

B3: Renilla luciferase-Smad3 Y238A (natural protein, UniProt P84022 1-425, looked up)
chain: MSSILPFTPPIVKRLLGWKKGEQNGQEEKWCEKAVKSLVKKLKKTGQLDELEKAITTQNVNTKCITIPRSLDGRLQVSHRKGLPHVIYCRLWRWPDLHSHHELRAMELCEFAFNMKKDEVCVNPYHYQRVETPVLPPVLVPRHTEIPAEFPPLDDYSHSIPENTNFPAGIEPQSNIPETPPPGYLSEDGETSDHQMNHSMDAGSPNLSPNPMSPAHNNLDLQPVTYCEPAFWCSISYAELNQRVGETFHASQPSMTVDGFTDPSNSERFCLGLLSNVNRNAAVELTRRHIGRGVRLYYIGGEVFAECLSDSAIFVQSPNCNQRYGWHPATVCKIPPGCNLKIFNNQEFAALLAQSVNQGFEAVYQLTRMCTIRMSFVKGWGAEYRRQTVTSTPCWIELHLNGPLQWLDKVLTQMGSPSIRCSSVS
notes: as for B1
Regarding B3, the “percent binding relative to wild-type Smad3” value in experiment [1] was 44%; with Flag-Smad3, full length it was 24%; in experiment [2], 15%.

B4: Renilla luciferase-Smad3 R243A (natural protein, UniProt P84022 1-425, looked up)
chain: MSSILPFTPPIVKRLLGWKKGEQNGQEEKWCEKAVKSLVKKLKKTGQLDELEKAITTQNVNTKCITIPRSLDGRLQVSHRKGLPHVIYCRLWRWPDLHSHHELRAMELCEFAFNMKKDEVCVNPYHYQRVETPVLPPVLVPRHTEIPAEFPPLDDYSHSIPENTNFPAGIEPQSNIPETPPPGYLSEDGETSDHQMNHSMDAGSPNLSPNPMSPAHNNLDLQPVTYCEPAFWCSISYYELNQAVGETFHASQPSMTVDGFTDPSNSERFCLGLLSNVNRNAAVELTRRHIGRGVRLYYIGGEVFAECLSDSAIFVQSPNCNQRYGWHPATVCKIPPGCNLKIFNNQEFAALLAQSVNQGFEAVYQLTRMCTIRMSFVKGWGAEYRRQTVTSTPCWIELHLNGPLQWLDKVLTQMGSPSIRCSSVS
notes: as for B1
Consider B4, for which the “percent binding relative to wild-type Smad3” value worked out at 72% in experiment [1]; 46% with Flag-Smad3, full length; 28% in experiment [2].

B5: Renilla luciferase-Smad3 Y384A (natural protein, UniProt P84022 1-425, looked up)
chain: MSSILPFTPPIVKRLLGWKKGEQNGQEEKWCEKAVKSLVKKLKKTGQLDELEKAITTQNVNTKCITIPRSLDGRLQVSHRKGLPHVIYCRLWRWPDLHSHHELRAMELCEFAFNMKKDEVCVNPYHYQRVETPVLPPVLVPRHTEIPAEFPPLDDYSHSIPENTNFPAGIEPQSNIPETPPPGYLSEDGETSDHQMNHSMDAGSPNLSPNPMSPAHNNLDLQPVTYCEPAFWCSISYYELNQRVGETFHASQPSMTVDGFTDPSNSERFCLGLLSNVNRNAAVELTRRHIGRGVRLYYIGGEVFAECLSDSAIFVQSPNCNQRYGWHPATVCKIPPGCNLKIFNNQEFAALLAQSVNQGFEAVYQLTRMCTIRMSFVKGWGAEARRQTVTSTPCWIELHLNGPLQWLDKVLTQMGSPSIRCSSVS
notes: as for B1
B5: the “percent binding relative to wild-type Smad3” value in experiment [1] amounted to 53%; with Flag-Smad3, full length, 28%; in experiment [2] it was 41%.

B6: Renilla luciferase-Smad3 R292A (natural protein, UniProt P84022 1-425, looked up)
chain: MSSILPFTPPIVKRLLGWKKGEQNGQEEKWCEKAVKSLVKKLKKTGQLDELEKAITTQNVNTKCITIPRSLDGRLQVSHRKGLPHVIYCRLWRWPDLHSHHELRAMELCEFAFNMKKDEVCVNPYHYQRVETPVLPPVLVPRHTEIPAEFPPLDDYSHSIPENTNFPAGIEPQSNIPETPPPGYLSEDGETSDHQMNHSMDAGSPNLSPNPMSPAHNNLDLQPVTYCEPAFWCSISYYELNQRVGETFHASQPSMTVDGFTDPSNSERFCLGLLSNVNRNAAVELTRRHIGAGVRLYYIGGEVFAECLSDSAIFVQSPNCNQRYGWHPATVCKIPPGCNLKIFNNQEFAALLAQSVNQGFEAVYQLTRMCTIRMSFVKGWGAEYRRQTVTSTPCWIELHLNGPLQWLDKVLTQMGSPSIRCSSVS
notes: as for B1
Consider B6, for which the “percent binding relative to wild-type Smad3” value in experiment [1] was 59%; with Flag-Smad3, full length, 49%; in experiment [2] it was 32%.
